The text below walks through data of US20230096030A1 (UCB, published 2023).

Test [1] deals with T1, recombinant human CD9 long extracellular loop 2-human Fc fusion protein (10015-CD, R&D Systems) (human, UniProt P21926 112-195).
T1 construct: Bought reagent; the order here follows the printed name; also called CD9-loop2; long extracellular loop 2 peptide; not shown: human Fc
T1 sequence: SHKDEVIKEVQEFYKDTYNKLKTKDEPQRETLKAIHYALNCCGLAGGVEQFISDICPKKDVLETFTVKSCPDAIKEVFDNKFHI
The experiment in a line: BLI (Octet RED384), CD9 loop 2-Fc on AHC biosensors, Fab-Y 10 µg/mL. The source says: CD9 contains two extracellular loops: a short extracellular loop (loop 1: 34-55 in SEQ ID NO:2) and a long extracellular loop (loop 2: 112-195 in SEQ ID NO:2). We used biolayer interferometry to assess binding of our panel of CD9 Fab-Y antibodies (selected for binding to full length cell-expressed CD9) to the long extracellular loop 2 peptide using the Octet® RED384 System (FortéBio) with Anti-hlgG Fc Capture (AHC) Biosensors (FortéBio) at room temperature. Firstly, an array of 8 sensors was dipped in kinetics buffer (PBS 0.1%, BSA 0.02%, Tween 20) for 120 seconds to provide a baseline signal. Sensors were then moved to wells containing 200 μl of recombinant human CD9 long extracellular loop 2-human Fc fusion protein (10015-CD, R&D Systems®) at 2 μg/mL in kinetics buffer to immobilize the protein to the biosensor (100 seconds), followed by a second baseline step (180 seconds) in kinetics buffer to equilibrate the biosensors now coated with the CD9 long extracellular loop 2-human Fc fusion protein. No detachment of the peptide was observed during this step. Sensors were then dipped in wells containing one of the anti-CD9 Fab (10 μg/mL) to evaluate association of each antibody to CD9-loop2 (120 seconds), followed by dissociation in kinetics buffer (600 seconds). Anti-CD137 Fab-Y (11175) was used as negative control during the antibody association step. […]

The target of test [2] is T2, full length cell-expressed CD9 (human, UniProt P21926 2-228).
T2 construct: also called human CD9
T2 sequence: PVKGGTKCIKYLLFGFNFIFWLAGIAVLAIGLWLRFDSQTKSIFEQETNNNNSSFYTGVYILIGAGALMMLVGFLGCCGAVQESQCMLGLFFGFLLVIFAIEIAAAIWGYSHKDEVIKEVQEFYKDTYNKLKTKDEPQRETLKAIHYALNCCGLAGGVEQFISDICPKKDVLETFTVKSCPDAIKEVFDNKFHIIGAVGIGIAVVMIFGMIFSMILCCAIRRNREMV
Description: selection on cells expressing CD9; method not described.

B1: anti-CD9 Fab-Y 7272 (Fab, V domains shown)
VH: QSLEESGGRLVTPGTPLTLTCTVSGFSLSSYAMGWVRQAPGKGLEWIGAIGSITATGYARWAKGRFSISKTSTTVDLKMTSPTTEDTATYFCAREIYVGSAYAFDIWGPGTLVTVSS
VL: AYDMTQTPASVEVAVGDTVTIKCQASQSISNYLAWYQQKPGQPPKLLIYLASTLASGVPSRFKGSGSGTEFTLTISDLECADAATYYCQQGYIDNVNKGFGGGTEVVVK
notes: Tested as Fab-Y: Fab with the GCN4 peptide (clone 7P14P) attached by a peptide linker to CH1; also called VR7272
Turning to B1, the binding result in test [1] and in test [2] was “binds” in each case.
